Assay results from PMC12340942.

Target: RSV postfusion F (Flys-GCN without the StrepII-tag) (respiratory syncytial virus (RSV))
Test: cryo-EM structure

RSV postfusion F (Flys-GCN without the StrepII-tag) (domain or fragment)
stoichiometry N: 3
